Laboratory results published in patent US20250313626A1 (HARBOUR BIOMED SHANGHAI, published 2025).
Changes are numbered by the printed parent chain.

T1: cell surface glycoprotein CD200 receptor 2 isoform 1 precursor CD200R1L recombinant protein (Sino … (human, UniProt Q6Q8B3 24-239))
T1 construct: Bought protein; also called hCD200R1L; recombinant human CD200R1L protein
T1 sequence: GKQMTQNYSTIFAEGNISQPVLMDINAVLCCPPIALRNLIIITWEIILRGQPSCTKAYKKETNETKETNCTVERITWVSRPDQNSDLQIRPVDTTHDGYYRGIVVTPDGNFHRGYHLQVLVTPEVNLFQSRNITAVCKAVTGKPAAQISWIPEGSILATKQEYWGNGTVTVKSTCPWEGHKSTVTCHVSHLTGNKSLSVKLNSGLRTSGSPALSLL

T2: human CD200R1 isoform a on CHOK1 cells (CHOK1/hCD200R1a) (human, UniProt Q8TD46 25-348)
T2 construct: also called CHOK1/CD200R1a
T2 sequence: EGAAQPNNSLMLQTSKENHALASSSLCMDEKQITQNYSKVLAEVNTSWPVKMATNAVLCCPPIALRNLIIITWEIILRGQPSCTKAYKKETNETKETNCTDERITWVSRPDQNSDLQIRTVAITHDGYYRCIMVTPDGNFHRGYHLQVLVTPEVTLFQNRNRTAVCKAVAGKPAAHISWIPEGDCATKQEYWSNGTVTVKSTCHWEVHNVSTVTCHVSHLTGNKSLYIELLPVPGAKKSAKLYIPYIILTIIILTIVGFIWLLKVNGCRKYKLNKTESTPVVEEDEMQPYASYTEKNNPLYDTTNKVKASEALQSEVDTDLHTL

B1: PR007973 (antibody, human IgG1, kappa, V domains shown)
VH: QVQLVESGGGVVQPGRSLRLSCAASGFTFSSYGFHWVRQAPGKGLEWLGIIWSDASNKYYADSVKGRFTISRDNSKNTLYLQMNSLRAEDTAVYYCARDRIVGEGFDYWGQGTLVTVSS
VL: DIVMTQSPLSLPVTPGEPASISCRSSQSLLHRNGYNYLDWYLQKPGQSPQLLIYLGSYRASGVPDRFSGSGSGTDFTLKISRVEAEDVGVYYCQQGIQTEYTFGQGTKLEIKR
notes: PTM variant of PR006839 (human IgG1)
B2: PR007221 (antibody, human IgG1, kappa)
heavy: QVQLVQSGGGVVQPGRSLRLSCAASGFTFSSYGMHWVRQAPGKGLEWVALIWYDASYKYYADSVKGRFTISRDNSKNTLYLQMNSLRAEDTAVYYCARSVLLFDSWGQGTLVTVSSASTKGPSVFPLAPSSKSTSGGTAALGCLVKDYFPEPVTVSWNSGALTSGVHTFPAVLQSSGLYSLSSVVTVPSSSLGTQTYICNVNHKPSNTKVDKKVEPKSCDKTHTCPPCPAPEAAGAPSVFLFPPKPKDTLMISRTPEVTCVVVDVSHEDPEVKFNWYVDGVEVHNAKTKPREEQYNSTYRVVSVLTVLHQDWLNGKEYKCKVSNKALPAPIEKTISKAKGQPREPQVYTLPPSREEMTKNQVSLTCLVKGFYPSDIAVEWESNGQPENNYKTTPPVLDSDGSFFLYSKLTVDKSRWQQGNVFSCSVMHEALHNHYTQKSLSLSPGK
light: DIQLTQSPPSLSASVGDRVTITCRASQSISSYLNWFQQKAGKAPKLLISATSNLQSGVPSRFSGSGSGTDFTLTISSLQPEDLATYYCQQTLSSPYTFGQGTKVEIKRTVAAPSVFIFPPSDEQLKSGTASVVCLLNNFYPREAKVQWKVDNALQSGNSQESVTEQDSKDSTYSLSSTLTLSKADYEKHKVYACEVTHQGLSSPVTKSFNRGEC
notes: PTM variant of PR006895 (human IgG1)
B3: PR007223 (antibody, human IgG1, kappa)
heavy: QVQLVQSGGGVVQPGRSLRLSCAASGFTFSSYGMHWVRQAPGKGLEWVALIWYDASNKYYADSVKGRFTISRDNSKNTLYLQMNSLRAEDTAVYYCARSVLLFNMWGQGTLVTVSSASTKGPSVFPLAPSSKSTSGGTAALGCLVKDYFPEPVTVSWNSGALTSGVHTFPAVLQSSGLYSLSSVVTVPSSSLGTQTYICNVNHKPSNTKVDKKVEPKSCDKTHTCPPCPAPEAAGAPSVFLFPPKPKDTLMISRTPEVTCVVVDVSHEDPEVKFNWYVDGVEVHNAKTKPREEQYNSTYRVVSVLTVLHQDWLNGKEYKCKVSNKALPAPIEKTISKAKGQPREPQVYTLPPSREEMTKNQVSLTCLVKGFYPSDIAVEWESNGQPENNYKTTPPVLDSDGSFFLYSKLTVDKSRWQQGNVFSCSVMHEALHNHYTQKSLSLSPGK
light: B2 light with L92Y
notes: as for B2
B4: PR002906 (antibody, V domains shown)
VH: QVQLQESGPGLVKPSETLSLTCTVSGYTITSGYDWSWIRQPPGKGLEWIGYINYGGSTNYKPSLGSRVTISVDTSKNQFSLKLSSVTAADTAVYYCARYNEYKSYIYDWYFDFWGQGTLVTVSS
VL: DIQMTQSPSSLSASVGDRVTITCKASKNIRSYLAWYQQKPGKAPKLLIYSGSTLHSGVPSRFSGSGSGTDFTLTISSLQPEDFATYYCQQHHEYPLTFGQGTKVEIKR
notes: also called recombinant IgG1 antibody of huDX182
B5: PR005474 (antibody, human IgG1, kappa, L234A L235A, V domains shown)
VH: QVQLVESGGGVVQPGRSLRLSCAASAFTFSSYGMHWVRQAPGKGLEWVALIWNDGSNKFYADSVKGRFTISRDNSKNTLFLQMNSLRAEDTAVYYCARDRILGAGFDYWGQGTLVTVSS
VL: not shown
B6: PR006480 (antibody, human IgG1, kappa, L234A L235A)
heavy: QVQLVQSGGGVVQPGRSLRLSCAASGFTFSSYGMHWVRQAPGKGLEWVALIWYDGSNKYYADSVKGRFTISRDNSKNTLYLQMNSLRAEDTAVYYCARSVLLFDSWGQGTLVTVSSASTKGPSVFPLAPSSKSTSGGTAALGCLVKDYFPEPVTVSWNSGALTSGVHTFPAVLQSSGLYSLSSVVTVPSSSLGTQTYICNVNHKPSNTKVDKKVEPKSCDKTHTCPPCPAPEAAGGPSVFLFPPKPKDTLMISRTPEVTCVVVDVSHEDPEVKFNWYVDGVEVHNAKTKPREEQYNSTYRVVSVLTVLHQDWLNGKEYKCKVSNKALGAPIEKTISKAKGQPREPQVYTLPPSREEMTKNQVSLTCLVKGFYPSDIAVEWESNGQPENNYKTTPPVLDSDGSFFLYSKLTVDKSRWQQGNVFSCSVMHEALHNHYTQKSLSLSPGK
light: B2 light with L4M, T91S, L92Y
notes: also called PR6480

What follows are binders tested against T1, cell surface glycoprotein CD200 … (assay: ELISA on plate-coated recombinant human CD200R1L).
Procedure: In specific, the cell surface glycoprotein CD200 receptor 2 isoform 1 precursor CD200R1L recombinant protein (Sino Biologicals, 11620-H08H, SEQ ID NO:174) were diluted with PBS to 1 μg/mL, and added to a 96-well plate (Corning, #9018) at 100 μl per well, and incubated overnight at 4° C. After the liquid was discarded, the plate was washed 3 times with PBST buffer (pH 7.4, containing 0.05% tween-20), 250 μl 2% BSA blocking solution was added into the plate and incubated at 37° C. for 1 hour. The blocking solution was discarded and the plate was washed 3 times with PBST buffer (pH 7.4, containing 0.05% Tween-20). The anti-CD200R1 antibodies were diluted and added at 100 µl/well, incubated at 37° C. for 1 hour, with isotype antibody as a control. After the plate was washed 3 times with PBST buffer (pH 7.4, containing 0.05% Tween-20), goat anti-human HRP secondary antibody (Invitrogen, #A18805) was diluted 5000 times, added into the plate and incubated for 1 hour at 37° C. in the dark. After the plate was washed with PBST buffer (pH 7.4, containing 0.05% tween-20) for 3 times, 100p/well of TMB (Biopanda, #TMB-S-003) was add and the plate was placed in the dark at room temperature for about 30 minutes; stop solution (BBI life sciences, #E661006-0200) was added at 50p/well to each well to terminate the reaction, and the absorbance (OD450) at 450 nm was measured in a microplate reader (PerkinElemer, #Enspire).
B1: no binding (tested: 100 nM). B2: no binding (tested: 100 nM). B3: no binding (tested: 100 nM).

The binders below were run against T2, human CD200R1 isoform a on CHOK1 cells … (assay: flow cytometry, CHOK1/hCD200R1a cells; table beside the curves, head without unit, x axis Log [Ab] (nM)).
Procedure: This example is intended to investigate the in vitro binding activity of human anti-CD200R1 monoclonal antibodies to human/Cynomolgus macaques CD200R1a expressed on the surface of cells. The anti-CD200R1 antibodies were produced as described in Example 3.4 and the binding experiments at the cell level were performed using CHOK1/hCD200R1a and CHOK1-cynoCD200R1a.
Briefly, CHOK1/hCD200R1a cells and CHOK1-cynoCD200R1a cells were digested, and collected, and then were resuspended in PBS containing 2% BSA, respectively. The cell density was adjusted to 1×10⁶ cells/mL. The cells were seeded in a 96-well V-bottom plate (Corning, #3894) at 100 μL/well, followed by the addition of test antibodies and reference antibodies in a series diluted concentration, each at 100 μL/well. The cells were incubated away from light at 4° C. for 1 h. Thereafter, the cells in each well were rinsed twice with 100 μL of pre-cooled PBS containing 2% BSA, and centrifuged at 500 g at 4° C. for 5 min, and then the supernatant was discarded. 100 μL of fluorescent secondary antibody (Alexa Fluor 488-conjugated AffiniPure Goat Anti-Human IgG, Fcγ Fragment Specific, Jackson, #109-545-098, diluted in a 1:1000 ratio) was added in each well, and the plate was incubated away from light at 4° C. for 1 h. The cells in each well were rinsed twice with 100 μL of pre-cooled PBS containing 2% BSA, and centrifuged at 500 g at 4° C. for 5 min, and then the supernatant was discarded. Finally, the cells in each well were resuspended in 200 μL of pre-cooled PBS containing 2% BSA, and the fluorescence signal values were read using a BD CantoII flow cytometer.
Binder B4 has an EC50 of 14.8 nM. Work on B5 yielded an EC50 of 9.36 nM. B6 was tested, and the EC50 was 33 nM.

Each binder was assayed against T2, human CD200R1 isoform a on CHOK1 cells … (assay: flow cytometry blocking assay: antibody titrated against biotin-labelled human CD200 binding to CHOK1/hCD200R1a cells; head prints EC50 without unit, x axis Log [Ab] (nM), y axis Inhibition %).
Procedure: In brief, CHOK1/hCD200R1a cells were digested and resuspended in 2% BSA in PBS. […] The cells were placed at 4° C. and incubated for 1 hour in the dark. […] 100 μL/well of pre-cooled PBS containing 2% BSA was added to rinse the cells twice, centrifugation was performed at 500 g, 4° C. for 5 minutes, and the supernatant was discarded. Fluorescent secondary antibody (PE Streptavidin, BD, Cat #: 554061, 1:200) was added at 100 μL/well, and incubation was performed at 4° C. for 30 minutes in the dark. The cells were washed twice with 200 μL/well of pre-cooled PBS, and were centrifuged at 500 g, 4° C. for 5 minutes, and the supernatant was discarded. Finally, 200 μL/well of pre-cooled PBS was used to resuspend the cells, and the fluorescence signal values were read using ACEA Novocyte 3000 flow cytometer. IC50 values were calculated.
Work on B4 yielded an EC50 of 0.479 nM. With B6 the EC50 was 0.164 nM. B2 was tested, and the EC50 was 0.194 nM. B3 gave an EC50 of 0.122 nM.
